Biological target: Factor XIIIA (the A-subunit of coagulation Factor XIII), zymogen (UniProt P00488)
Assay: AUC

“Factor XIIIA (the A-subunit of coagulation Factor XIII), zymogen (from UniProt P00488 1-732) (enzyme)” was tested, and the percent dissociated to monomers after 6 h in 25 mM CaCl2 was 80%.
